T1: T cell receptor (TCR) Vγ9 (TRGV9) (human, UniProt Q99603 21-122)
T1 chain (looked up): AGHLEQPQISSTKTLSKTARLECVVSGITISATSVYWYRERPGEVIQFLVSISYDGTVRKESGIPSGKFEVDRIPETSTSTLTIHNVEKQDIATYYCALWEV

T2: T cell receptor (TCR) Vγ9 (TRGV9) (human, UniProt Q99603 21-122)
T2 chain (looked up): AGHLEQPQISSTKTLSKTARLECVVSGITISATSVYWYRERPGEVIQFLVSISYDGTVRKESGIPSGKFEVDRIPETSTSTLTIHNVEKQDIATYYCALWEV

B1: VG9B33 (antibody, human IgG1, kappa, V domains shown)
VH: EVQLVESGGGLVKPGGSLRLSCAASGFTFSSYNMNWVRQAPGKGLEWVSSISTSSSYIYYADSVKGRFTISRDNAKNSLYLQMNGLRAEDTAVYYCARDTSVTKYPDTFDIWGQGTMVTVSS
VL: DIVMTQSPSSLSASVGDRVTITCRASQDINNYLAWFQQKPGKVPNLLIYGASTLQSGVPSRFTGSGSGTDFTLTISSLQPEDVATYYCQKYNSAPFTFGPGTKVDIKR
B2: VG9B402 (antibody, human IgG1, kappa)
heavy: not shown
light: DIQMTQSPSSVSASVGDRVTITCRASQGINSWLAWYQQKPGNAPKLLIYAASSLQSGVPSRFSGIGSGTDFIFTISSLQPEDFASYYCQQANSFPWTFGQGTKVDIKRTVAAPSVFIFPPSDEQLKSGTASVVCLLNNFYPREAKVQWKVDNALQSGNSQESVTEQDSKDSTYSLSSTLTLSKADYEKHKVYACEVTHQGLSSPVTKSFNRGEC
B3: VG9B137 (antibody, human IgG1, kappa, V domains shown)
VH: EVQLVESGGGLVKPGGSLRLSCAAFGITFSSYSMDWVRQAPGRGLEWVSSIGSSSSYIFYADSVKGRFTISRDNAKNSLYLQMNSLRAEDTAVYYCATSYSWNYGGAFDIWGQGTMVTVSS
VL: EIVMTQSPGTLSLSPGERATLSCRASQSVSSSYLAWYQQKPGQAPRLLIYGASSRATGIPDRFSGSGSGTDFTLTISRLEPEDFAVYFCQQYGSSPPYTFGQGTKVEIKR
B4: VG9B67 (antibody, human IgG1, kappa, V domains shown)
VH: EVQLVESGGGLVKPGGSLRLSCAASGFTFSSYTMNWVRQAPGKGLEWVSSISSSSSYIDYAESVKGRFTISRDNAKNSLYLQMNSLRAEDTAVYYCARDGDILATIRGSFDYWGQGTTVTVSS
VL: DIVMTQTPLSLPVTPGEPASISCRSSQSLLDSDAGNTYLDWYLQKPGQSPQLLIYTLSYRASGVPDRFSGSGSGTDFTLKISRVEAEDVAIYYCMQRIEFPITFGQGTKVEIKR
B5: VG9B127 (antibody, human IgG1, kappa, V domains shown)
VH: QVQLVESGGGLVKPGGSLRLSCTASGFTFGAYTMNWVRQAPGKGLEWVSSISSSSSYIDFAESVKGRFTISRDNAKNSLYLQMISLRAEDTAVYYCARDGDIVSTIRGSFDYWGQGALVTVSS
VL: EIVMTQSPLSLPVTPGEPASISCRSSQSLLDSDDGNTYLDWYLQKPGQSPQLLIYTLSYRASGVPDRFSGSGSGTDFTLKISRVEAEDVGIYYCMQRIEFPITFGQGTKVEIKR
B6: VG9B162 (antibody, human IgG1, lambda, V domains shown)
VH: QVQLVESGAEVTKPGASVKVSCKASGYTFTGDYMHWVRQAPGQGLEWMGWINPNSGYTNYAQKFQGRVTMTRDTSISTAYMELSRLRSDDTAVYYCAREGDAFDVWGQGTMVTVSS
VL: QLVLTQSSSASGSPGQSVTISCTGTSSDVGGYNYVSWYQQHPGKAPKLMIYEVSKRPSGVPDRFSGSKSGNTASLTVSGLQAEDEADYYCNSYAGSNNFEVFGGGTKLTVLG
B7: VG9B463 (antibody, human IgG1, lambda, V domains shown)
VH: EVQLVESGGGLVKPGGSLRLSCSASGFTFSNYDMNWVRQAPGKGLEWVSSISSSSSYIYYADSVKGRFTISRDNAKNSLYLQMNSLRAEDTAVYHCARDVGVTTDYYYYGMDVWGQGTTVTVSS
VL: QPVLTQSSSASGTPGQRVTISCSGSSSNIGSNTVNWYQQFPGTAPKLLIYTNTQRPSGVPDRFSGSKSGTLVSLAISGLQSEDEADYYCAAWDDSLNAWVFGGGTKLTVLG
B8: VG9B430 (antibody, human IgG1, kappa, V domains shown)
VH: EVQLLESGGGLVKPGGSLRLSCSASGFTFSSYDMNWVRQAPGKGLEWVSSISSSSSYIYYADSVKGRFTISRDNAKNSLYLQMNSLRAEDTAVYHCARDVGVTTDYYYYGMDVWGQGTMVTVSS
VL: EIVLTQSPGTLSLSPGDRATLSCRASQSVASSYLAWYQQKPGQSPRLLIYGASSRATGIPDRFSGSGSGTDFTLTISRLEPEDFAVYYCQQYGSSPPYTFGQGTKLEIKR
B9: VG9B98 (antibody, human IgG1, kappa, V domains shown)
VH: EVQLVQSGGDLVKSGGSLRLSCAASGFTFSSYSMYWVRQAPGKGLEWVSSIGSSSTYIFYADSVKGRFTISRDNAMTSLYLQMNRLGAEDSAVYYCARDGELGPFEYWGQGTLVTVSS
VL: EIVLTQSPGTLSLSPGERATLSCRASQSVSTSYLAWFQQKPGQAPRLLIFGTSSRATGIPDRFSGSGSGTDFTLTISRLEPEDFAVYHCLQYGRSPLTFGGGTKVDIKR
B10: VG9B133 (antibody, human IgG1, kappa, V domains shown)
VH: EVQLVESGGGLVKPGGSLRLSCAAAGFTFSNYDMNWVRQVPGKGLEWVSSISSSSSYIYYADSVKGRFTISRDNAKNSLYLQMNTLRAEDTAVYYCARDLGITGTTMDYYYGMDVWGQGTMVTVSS
VL: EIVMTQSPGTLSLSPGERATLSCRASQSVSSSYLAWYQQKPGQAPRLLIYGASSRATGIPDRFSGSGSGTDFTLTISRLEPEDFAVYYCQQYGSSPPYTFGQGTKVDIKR
B11: VG9B428 (antibody, human IgG1, kappa)
heavy: not shown
light: EIVMTQSPSSVSASVGDRVTITCRASQGINSWLAWYQQKPGNAPKLLIYAASSLQSGVPSRFSGIGSGTDFIFTISSLQPEDFASYYCQQANSFPWTFGQGTKVEIKRTVAAPSVFIFPPSDEQLKSGTASVVCLLNNFYPREAKVQWKVDNALQSGNSQESVTEQDSKDSTYSLSSTLTLSKADYEKHKVYACEVTHQGLSSPVTKSFNRGEC
B12: VG9B69 (antibody, human IgG1, kappa, V domains shown)
VH: EVQLVESGGGLVKPGGSLRLSCAASGFTFSSYDINWVRQAPGKGLEWVSSITSSSYYIYYADSVKGRFTISRDNAKNSLYLQMNSLRAEDTAVYYCARDLGVRGVDYYYYGLDVWGQGTMVTVSS
VL: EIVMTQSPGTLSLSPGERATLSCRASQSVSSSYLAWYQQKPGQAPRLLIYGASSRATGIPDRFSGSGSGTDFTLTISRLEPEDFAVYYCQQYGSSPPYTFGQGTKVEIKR
B13: VG9B469 (antibody, human IgG1, kappa, V domains shown)
VH: EVQLVESGGGLVKPGGSLRLSCAASGFTFSHYDMNWVRQAPGKGLEWVSSISSSSSYIFYADSVKGRFTISRDNAKNSLLLQMNSLRAEDTAVYHCARDRGVGDTSDYYSFGLDVWGQGTMVTVSS
VL: DIVMTQSPGTLSLSPGERATLSCRASQNVSSTYLAWYQQKPGQAPRLLIYGACSRATGIPDRFSGSGSGTDFTLTISRLEPEDYAVYYCQQYGSSPPYTFGRGTKLEIKR
B14: VG9B73 (antibody, human IgG1, kappa, V domains shown)
VH: EVQLVQSGGGLVKPGGSLRLSCAASGFTFSNYDMNWVRQAPGKGLEWVSSISSSSSYIYYADSVKGRFTISRDNARNSLFLQMSSLRAEDTAVYYCAREIGVTGTTYYQDYGMDVWGQGTTVTVSS
VL: EIVMTQSPGTLSLSPGERATLSCRASQSFSSNYLAWYQQKPGQAPRLLIYGASSRATGIPDRFSGSGSGTDFTLTISRLEPEDFALYYCQQYGSSPPFTFGQGTKVEIKR
B15: VG9B198 (antibody, human IgG1, lambda, V domains shown)
VH: QVQLQESGPGLVKPSETLSLTCTVSGDSISSIYWSWIRQSAGKGLEWIGRIYTTDITNYNPSLKSRVTMSADTSKNQLSLKLTSVTAADTAVYYCAKNGYSYGGFNYWGQGTLVTVSS
VL: QSVLTQPPSVSGAPGQRVTISCTGSSSNIGAGYDVHWYQRLPGTAPKLLIYGDSYRPSGVPDRFSGSKSGTSASLAITGLQAEDEADYYCQSYDSSLSVVVFGGGTKLTVLG

Biological target: T1, T cell receptor (TCR) Vγ9 (TRGV9)
Assay: cell-based or functional assay
Wherever CD25+ (Vg9+ cells), flow staining is given: test concentration or dose not given here.
Wherever CD71+ (Vg9+ cells), flow staining is given: test concentration or dose not given here.

| CD25+ (Vg9+ cells), flow staining | CD71+ (Vg9+ cells), flow staining | Granzyme B, Luminex (supernatant) | IFNγ, Luminex (supernatant) | IL6, Luminex (supernatant) | TNFα, Luminex (supernatant) | Vg9 T cell %, flow staining | Binder |
| --- | --- | --- | --- | --- | --- | --- | --- |
| 28% | 95.2% | 1990 | 749 | 240 | 85 | 14% | B1 |
| 45.5% | 99.1% | 4500 | 2370 | 433 | 376 | 9.5% | B2 |
| 8.7% | 77.3% | 36 | 44 | 8 | 30 | 3.6% | B3 |
| 28.5% | 87.4% | 2550 | 972 | 365 | 144 | 14% | B4 |
| 37.3% | 96.5% | 2450 | 1170 | 348 | 709 | 11.2% | B5 |
| 9.7% | 70.3% | 481 | 57 | 54 | 329 | 2.7% | B6 |

Biological target: T2, T cell receptor (TCR) Vγ9 (TRGV9)
Assay: cell-based or functional assay

| CD25+ (Vg9+ cells), flow staining | CD71+ (Vg9+ cells), flow staining | Granzyme B, Luminex (supernatant) | IFNγ, Luminex (supernatant) | IL6, Luminex (supernatant) | TNFα, Luminex (supernatant) | Vg9 T cell %, flow staining | Binder |
| --- | --- | --- | --- | --- | --- | --- | --- |
| 26% | 87.4% | 965 | 364 | 100 | 2110 | 4.1% | B7 |
| 37.5% | 96.2% | 2520 | 1490 | 372 | 125 | 10.7% | B8 |
| 29.4% | 90.5% | 1420 | 305 | 294 | 2010 | 7.2% | B9 |
| 21.8% | 91.4% | 3480 | 1170 | 478 | 123 | 5.8% | B10 |
| 37% | 98.1% | 4120 | 2000 | 613 | 390 | 5% | B11 |
| 40.4% | 97.7% | 3240 | 2070 | 591 | 1100 | 8.8% | B12 |
| 29.9% | 98.5% | 3700 | 1580 | 440 | 173 | 7.8% | B13 |
| 30.6% | 94.1% | 3370 | 1050 | 359 | 136 | 13.8% | B14 |
| 23% | 91.2% | 1100 | 324 | 199 | 66 | 3.6% | B15 |

Source: patent US20220125947A1 (published 2022)
